# Assay results: patent US20050256058A1 (GEORGIA TECH RESEARCH, published 2005)
# Numbered stars: 1 amine (or outer) side, 2 acyl side, 3 side chain; on linkers, the order of the positions; unused ones are H or OH. Square brackets hold non-standard residues; d marks the D form. * marks the point of attachment. CH═CH‑CON(CH2Ph)2 = O=C(/C=C/*)N(Cc1ccccc1)Cc1ccccc1; AAsp = aza-Asp, O=C(N(CC(=O)[*:3])N[*:1])[*:2]; Cbz = O=C(OCc1ccccc1)*
# B1: Cbz-Asp-Glu-Val-AAsp-CH═CH-CON(CH2Ph)2 (peptide)
# peptide: Cbz-DEV[AAsp]-{CH═CH‑CON(CH2Ph)2}
# SMILES: CC(C)[C@H](NC(=O)[C@H](CCC(=O)O)NC(=O)[C@H](CC(=O)O)NC(=O)OCc1ccccc1)C(=O)NN(CC(=O)O)C(=O)/C=C/C(=O)N(Cc1ccccc1)Cc1ccccc1
# B2: Cbz-Leu-Glu-Thr-AAsp-CH═CH-CON-tetrahydroquinoline (peptide)
# peptide: Cbz-LET[AAsp]-{CH═CH‑CO‑tetrahydroquinoline}
# B3: Cbz-Leu-Glu-Thr-AAsp-CH═CH-CON(CH2Ph)2 (peptide)
# peptide: Cbz-LET[AAsp]-{CH═CH‑CON(CH2Ph)2}
# SMILES: CC(C)C[C@H](NC(=O)OCc1ccccc1)C(=O)N[C@@H](CCC(=O)O)C(=O)N[C@H](C(=O)NN(CC(=O)O)C(=O)/C=C/C(=O)N(Cc1ccccc1)Cc1ccccc1)[C@@H](C)O
# B4: Cbz-Leu-Glu-Thr-AAsp-CH═CH-CON(CH3)CH2-1-Napth (peptide)
# peptide: Cbz-LET[AAsp]-{CH═CH‑CON(CH3)CH2‑1‑Napth}
# B5: Cbz-Asp-Glu-Val-AAsp-CH═CH-CONHCH2CH2Ph (peptide)
# peptide: Cbz-DEV[AAsp]-{CH═CH‑CONHCH2CH2Ph}
# Target: T1, Caspase-2 (UniProt P42575 170-452, limits assumed)
# T1 sequence (looked up): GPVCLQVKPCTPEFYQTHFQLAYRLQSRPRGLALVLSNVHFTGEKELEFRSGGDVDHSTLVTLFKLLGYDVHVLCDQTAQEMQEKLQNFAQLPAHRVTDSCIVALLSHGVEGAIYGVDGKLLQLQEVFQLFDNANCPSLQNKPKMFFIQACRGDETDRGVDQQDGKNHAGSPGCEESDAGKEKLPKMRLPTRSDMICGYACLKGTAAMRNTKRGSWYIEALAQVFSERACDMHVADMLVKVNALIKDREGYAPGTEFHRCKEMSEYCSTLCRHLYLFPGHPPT
# Test: cell-based or functional assay
row,Binder,k2
1,B1,110 M⁻¹ s⁻¹
2,B2,92 M⁻¹ s⁻¹
3,B3,110 M⁻¹ s⁻¹
4,B4,290 M⁻¹ s⁻¹
5,B5,120 M⁻¹ s⁻¹

# Target: T2, Caspase-6 (UniProt P55212 24-293, limits assumed)
# T2 sequence (looked up): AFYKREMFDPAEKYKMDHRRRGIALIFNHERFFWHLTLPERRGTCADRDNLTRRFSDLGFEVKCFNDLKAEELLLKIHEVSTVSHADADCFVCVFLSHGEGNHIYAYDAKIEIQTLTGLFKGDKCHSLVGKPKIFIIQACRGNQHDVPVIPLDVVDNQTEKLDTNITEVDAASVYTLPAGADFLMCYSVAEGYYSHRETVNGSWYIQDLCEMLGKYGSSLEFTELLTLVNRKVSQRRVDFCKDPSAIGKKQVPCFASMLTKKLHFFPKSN
# Test: cell-based or functional assay
row,Binder,k2
1,B1,5100 M⁻¹ s⁻¹
2,B2,13000 M⁻¹ s⁻¹
3,B3,14100 M⁻¹ s⁻¹
4,B4,21700 M⁻¹ s⁻¹
5,B5,3470 M⁻¹ s⁻¹

# Target: T3, Caspase-9 (UniProt P55211 1-416, limits assumed)
# T3 sequence (looked up): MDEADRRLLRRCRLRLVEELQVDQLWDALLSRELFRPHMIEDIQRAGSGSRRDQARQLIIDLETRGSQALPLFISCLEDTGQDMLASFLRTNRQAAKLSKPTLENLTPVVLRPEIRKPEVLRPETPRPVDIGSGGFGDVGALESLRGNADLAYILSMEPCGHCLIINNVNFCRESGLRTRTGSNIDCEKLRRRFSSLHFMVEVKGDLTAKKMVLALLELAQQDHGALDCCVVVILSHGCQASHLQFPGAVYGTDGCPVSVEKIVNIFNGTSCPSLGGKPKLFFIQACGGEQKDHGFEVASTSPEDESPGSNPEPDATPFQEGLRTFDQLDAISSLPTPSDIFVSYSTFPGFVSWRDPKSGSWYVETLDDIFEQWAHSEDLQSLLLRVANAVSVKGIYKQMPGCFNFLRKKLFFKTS
# Test: cell-based or functional assay
row,Binder,k2
1,B1,450 M⁻¹ s⁻¹
2,B2,1660 M⁻¹ s⁻¹
3,B3,1100 M⁻¹ s⁻¹
4,B4,5030 M⁻¹ s⁻¹
5,B5,655 M⁻¹ s⁻¹

# Target: T4, Caspase-7 (UniProt P55210 24-303)
# T4 sequence (looked up): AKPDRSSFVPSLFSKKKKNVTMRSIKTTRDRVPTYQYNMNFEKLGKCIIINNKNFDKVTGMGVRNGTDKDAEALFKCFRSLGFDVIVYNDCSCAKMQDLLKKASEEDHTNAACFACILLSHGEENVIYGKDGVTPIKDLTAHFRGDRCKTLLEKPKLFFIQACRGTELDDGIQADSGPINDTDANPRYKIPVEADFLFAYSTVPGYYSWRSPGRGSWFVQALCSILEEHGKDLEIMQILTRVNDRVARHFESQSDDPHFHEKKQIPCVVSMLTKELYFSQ
# Test: cell-based or functional assay
row,Binder,k2
1,B1,359000 M⁻¹ s⁻¹
2,B2,540 M⁻¹ s⁻¹
3,B3,760 M⁻¹ s⁻¹
4,B4,1100 M⁻¹ s⁻¹
5,B5,267000 M⁻¹ s⁻¹

# Target: Caspase-8 (UniProt Q14790 217-479)
# Sequence (Q14790 217-479 limits assumed): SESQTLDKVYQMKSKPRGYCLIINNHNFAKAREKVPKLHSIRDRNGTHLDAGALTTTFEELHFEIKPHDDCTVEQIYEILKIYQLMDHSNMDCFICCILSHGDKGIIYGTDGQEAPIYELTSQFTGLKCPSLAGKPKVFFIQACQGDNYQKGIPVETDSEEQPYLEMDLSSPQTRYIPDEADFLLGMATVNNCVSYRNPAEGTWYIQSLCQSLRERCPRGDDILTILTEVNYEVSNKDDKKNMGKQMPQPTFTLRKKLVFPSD
# Test: cell-based or functional assay
row,Binder,k2
1,B1,8600 M⁻¹ s⁻¹
2,B2,216000 M⁻¹ s⁻¹
3,B3,129000 M⁻¹ s⁻¹
4,B4,179000 M⁻¹ s⁻¹
5,B5,129000 M⁻¹ s⁻¹

# Target: T5, Caspase-10 (UniProt Q92851 220-521, limits assumed)
# T5 sequence (looked up): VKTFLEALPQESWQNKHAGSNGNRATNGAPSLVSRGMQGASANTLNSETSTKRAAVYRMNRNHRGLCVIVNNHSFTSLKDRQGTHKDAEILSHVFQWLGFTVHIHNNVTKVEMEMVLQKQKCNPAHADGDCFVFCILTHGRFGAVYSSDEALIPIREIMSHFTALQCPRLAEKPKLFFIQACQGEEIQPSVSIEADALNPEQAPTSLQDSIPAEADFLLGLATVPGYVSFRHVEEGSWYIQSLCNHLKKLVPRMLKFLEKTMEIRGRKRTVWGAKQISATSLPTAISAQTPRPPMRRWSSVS
# Test: cell-based or functional assay
row,Binder,k2
1,B1,6300 M⁻¹ s⁻¹
2,B2,9000 M⁻¹ s⁻¹
3,B3,8080 M⁻¹ s⁻¹
4,B4,13600 M⁻¹ s⁻¹
5,B5,31400 M⁻¹ s⁻¹

# Target: T6, Caspase-3 (UniProt P42574 29-277)
# T6 sequence (looked up): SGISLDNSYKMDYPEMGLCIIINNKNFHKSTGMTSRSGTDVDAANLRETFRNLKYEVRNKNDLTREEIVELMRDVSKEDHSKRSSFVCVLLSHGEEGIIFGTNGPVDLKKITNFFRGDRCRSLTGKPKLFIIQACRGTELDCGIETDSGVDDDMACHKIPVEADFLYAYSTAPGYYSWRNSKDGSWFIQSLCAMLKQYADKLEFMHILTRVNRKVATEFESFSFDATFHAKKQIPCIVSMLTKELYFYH
# Test: cell-based or functional assay
row,Binder,k2
1,B1,3e+06 M⁻¹ s⁻¹
2,B2,12100 M⁻¹ s⁻¹
3,B3,8630 M⁻¹ s⁻¹
4,B4,11200 M⁻¹ s⁻¹
5,B5,1.95e+06 M⁻¹ s⁻¹

# Target: T6, Caspase-3
# Test: cell-based or functional assay
# Remark: another data set of the same source
Binder,fold more potent inhibition than of caspase-6,fold more potent inhibition than of caspase-8
B1,588 fold,348 fold
